Measured values: patent US20210395346A1 (SEOUL NATIONAL UNIVERSITY R AND DB FOUNDATION, published 2021)

Assays:
[1] = target: T1, SARS-CoV-2 RBD variant N501Y (UK) (SARS-CoV-2, UniProt P0DTC2 319-541); experiment: ELISA (FIG. 18C)
T1 construct: domain: RBD

[2] = target: T2, SARS-CoV-2 RBD variant N439K (Europe) (SARS-CoV-2, UniProt P0DTC2 319-541); experiment: ELISA (FIG. 18C)
T2 construct: domain: RBD

[3] = target: T3, SARS-CoV-2 RBD variant K417V, N439K (Europe) (SARS-CoV-2, UniProt P0DTC2 319-541); experiment: ELISA (FIG. 18C)
T3 construct: domain: RBD

[4] = target: T4, SARS-CoV-2 RBD variant K417N, E484K, N501Y (South Africa) (SARS-CoV-2, UniProt P0DTC2 319-541); experiment: ELISA (FIG. 18C)
T4 construct: domain: RBD

[5] = target: T5, SARS-CoV-2 RBD variant K417T, E484K, N501Y (Brazil) (SARS-CoV-2, UniProt P0DTC2 319-541); experiment: ELISA (FIG. 18C)
T5 construct: domain: RBD

[6] = target: T6, SARS-CoV-2 RBD variant L452R (California) (SARS-CoV-2, UniProt P0DTC2 319-541); experiment: ELISA (FIG. 18C)
T6 construct: domain: RBD

[7] = target: T7, SARS-CoV-2 RBD variant S477N (New York) (SARS-CoV-2, UniProt P0DTC2 319-541); experiment: ELISA (FIG. 18C)
T7 construct: domain: RBD

[8] = target: T8, SARS-CoV-2 RBD variant E484K (New York) (SARS-CoV-2, UniProt P0DTC2 319-541); experiment: ELISA (FIG. 18C)
T8 construct: domain: RBD

[9] = target: T9, SARS-CoV-2 RBD variant E484Q, L452R (India) (SARS-CoV-2, UniProt P0DTC2 319-541); experiment: ELISA (FIG. 18C)
T9 construct: domain: RBD

[10] = target: T1, SARS-CoV-2 RBD variant N501Y (UK); experiment: ELISA (FIG. 18E)
[11] = target: T2, SARS-CoV-2 RBD variant N439K (Europe); experiment: ELISA (FIG. 18E)
[12] = target: T3, SARS-CoV-2 RBD variant K417V, N439K …; experiment: ELISA (FIG. 18E)
[13] = target: T4, SARS-CoV-2 RBD variant K417N, E484K, …; experiment: ELISA (FIG. 18E)
[14] = target: T5, SARS-CoV-2 RBD variant K417T, E484K, …; experiment: ELISA (FIG. 18E)
[15] = target: T6, SARS-CoV-2 RBD variant L452R …; experiment: ELISA (FIG. 18E)
[16] = target: T7, SARS-CoV-2 RBD variant S477N (New York); experiment: ELISA (FIG. 18E)
[17] = target: T8, SARS-CoV-2 RBD variant E484K (New York); experiment: ELISA (FIG. 18E)
[18] = target: T9, SARS-CoV-2 RBD variant E484Q, L452R …; experiment: ELISA (FIG. 18E)
[19] = target: T1, SARS-CoV-2 RBD variant N501Y (UK); experiment: ELISA (FIG. 18A)
[20] = target: T2, SARS-CoV-2 RBD variant N439K (Europe); experiment: ELISA (FIG. 18A)
[21] = target: T3, SARS-CoV-2 RBD variant K417V, N439K …; experiment: ELISA (FIG. 18A)
[22] = target: T4, SARS-CoV-2 RBD variant K417N, E484K, …; experiment: ELISA (FIG. 18A)
[23] = target: T5, SARS-CoV-2 RBD variant K417T, E484K, …; experiment: ELISA (FIG. 18A)
[24] = target: T6, SARS-CoV-2 RBD variant L452R …; experiment: ELISA (FIG. 18A)
[25] = target: T7, SARS-CoV-2 RBD variant S477N (New York); experiment: ELISA (FIG. 18A)
[26] = target: T8, SARS-CoV-2 RBD variant E484K (New York); experiment: ELISA (FIG. 18A)
[27] = target: T9, SARS-CoV-2 RBD variant E484Q, L452R …; experiment: ELISA (FIG. 18A)
[28] = target: T1, SARS-CoV-2 RBD variant N501Y (UK); experiment: ELISA (FIG. 18B)
[29] = target: T2, SARS-CoV-2 RBD variant N439K (Europe); experiment: ELISA (FIG. 18B)
[30] = target: T3, SARS-CoV-2 RBD variant K417V, N439K …; experiment: ELISA (FIG. 18B)
[31] = target: T4, SARS-CoV-2 RBD variant K417N, E484K, …; experiment: ELISA (FIG. 18B)
[32] = target: T5, SARS-CoV-2 RBD variant K417T, E484K, …; experiment: ELISA (FIG. 18B)
[33] = target: T6, SARS-CoV-2 RBD variant L452R …; experiment: ELISA (FIG. 18B)
[34] = target: T7, SARS-CoV-2 RBD variant S477N (New York); experiment: ELISA (FIG. 18B)
[35] = target: T8, SARS-CoV-2 RBD variant E484K (New York); experiment: ELISA (FIG. 18B)
[36] = target: T9, SARS-CoV-2 RBD variant E484Q, L452R …; experiment: ELISA (FIG. 18B)

Measured: binding result

B1: A-2H4 antibody (format in FIG. 18 not stated) (antibody, V domains shown)
VH: QMQLVESGGGLVQPGRSLRLSCAASGFTFSVYGMHWVRQAPGKGLEWVAVISYDGSNKYYADSVKGRFSISRDNSKNTLYLQMNSLRGEDTAVYYCAKGGPRPVVKAYGELDYYGMDVWGQGTTVTVSS
VL: ELALTQPASVSGSPGQSITISCTGTSSDIGGYEYVSWYQQHPGKAPKLIIYDVRDRPSGISNRFSGSKSGNTASLIISSLQAGDEADYYCFSYTSSGTYVFGSATKVTVL
binds: [1] | [2] | [3] | [4] | [5] | [6] | [7] | [8] | [9]

B2: E-3G9 antibody (format in FIG. 18 not stated) (antibody, V domains shown)
VH: QMQLVQSGAEVKKPGASVKVSCKASGHTITSYYMHWVRQAPGQGLEWMGIINPSGGSTSYAQKFQGRVTMTRDTSTSTVYMELSSLRSEDTAVYYCAREGVWDSSGYSSFDYWGQGTLVTVSS
VL: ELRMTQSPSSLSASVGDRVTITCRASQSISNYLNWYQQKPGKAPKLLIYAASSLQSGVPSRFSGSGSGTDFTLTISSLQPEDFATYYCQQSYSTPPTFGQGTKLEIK
binds: [10] | [11] | [12] | [13] | [14] | [15] | [16] | [17] | [18]

B3: A-1H4 antibody (format in FIG. 18 not stated) (antibody, V domains shown)
VH: EVQLVESGGGLVQPGRSLRLSCAASGFTVSSNYMSWVRQAPGKGLEWVSGIYSGGSTYYADSVKGRFTISRDNSKNTLYLQMNSLRAEDTAVYYCARDLQEAGAFDIWGQGTMVTVSS
VL: ELQLTQSPSFLSASVGDRVTITCRASQGISSYLAWYQQKPGKAPKLLIYAASTLQSGVPSRFSGSGSGTEFTLTISSLQPEDFATYYCQQLNSYPRLTFGGGTKVEIK
binds: [19] | [20] | [21] | [22] | [23] | [24] | [25] | [26] | [27]

B4: A-2F1 antibody (format in FIG. 18 not stated) (antibody, V domains shown)
VH: QVQLVQSGGGLIQPGGSLRLSCAASGVTVSSNYMSWVRQAPGKGLEWVSVIYSGGSTFYADSVKGRFTISRDNSKNTLYLQMNSLRAEDTAVYYCARDLMEAGGMDVWGQGSTVTVSS
VL: ELALTQPPSASGSPGQSVTISCTASSSDIGASNHVAWYQQNPGKAPKLMIYGVSGRPSGVPDRFSGSKSGNTASLTVSGLQAEDEADYYCSSYAGSNILIFGGGTKLTVL
binds: [28] | [29] | [30] | [31] | [32] | [33] | [34] | [35] | [36]
